1 molecule from article PMC5791537 (Biomolecular NMR assignments, 2017) can be followed below.

The target in this experiment is C-domain fragment of human calmodulin (residues 76-148), calcium-free (apo) (human, UniProt P0DP23 77-149). The experiment in a line: NMR backbone assignment and chemical shift perturbation.

As for GPGSKRKQEEVSAIIIQRAYRRYLLKQKVKK, the binding result is “binds”.
